Drawing on publication PMC8932414, “Latent TGFβ complexes are transglutaminase cross-linked to fibrillin to facilitate TGFβ activation” (Matrix Biology, 2022), this text covers Kd for one molecule.

The Kd is the constant that tells how readily two partners part at equilibrium. Low values mean tighter binding, high ones weaker binding.

The target of the assay is T1, CT1-SLC (LTBP1-CT region disulphide bonded to the TGFβ1 small latent complex) (UniProt Q14766 1347-1721; P01137 30-390, disulphide bonded to the SLC).
T1 construct: TGFβ1 small latent complex (proTGFβ1: prodomain LAP and growth factor); also called LTBP1-SLC; truncated version of the LLC; source: HEK293T, co-expressed from pBUD4.1, purified from serum free media (Anti-Flag M2 resin, SEC); not shown: Twin-Strep (chain inferred)
T1 sequence (Q14766 1347-1721, chain 1 of 2): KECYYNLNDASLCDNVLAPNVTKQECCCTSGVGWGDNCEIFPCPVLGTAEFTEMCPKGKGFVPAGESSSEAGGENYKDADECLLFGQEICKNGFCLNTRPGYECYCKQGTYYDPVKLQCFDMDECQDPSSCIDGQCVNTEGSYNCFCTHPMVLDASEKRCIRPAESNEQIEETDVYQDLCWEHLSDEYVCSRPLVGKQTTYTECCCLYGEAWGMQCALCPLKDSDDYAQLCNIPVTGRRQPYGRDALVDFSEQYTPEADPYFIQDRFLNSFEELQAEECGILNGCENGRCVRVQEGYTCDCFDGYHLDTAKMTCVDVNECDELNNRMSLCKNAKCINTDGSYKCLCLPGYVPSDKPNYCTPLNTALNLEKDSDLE
T1 sequence (P01137 30-390, chain 2 of 2): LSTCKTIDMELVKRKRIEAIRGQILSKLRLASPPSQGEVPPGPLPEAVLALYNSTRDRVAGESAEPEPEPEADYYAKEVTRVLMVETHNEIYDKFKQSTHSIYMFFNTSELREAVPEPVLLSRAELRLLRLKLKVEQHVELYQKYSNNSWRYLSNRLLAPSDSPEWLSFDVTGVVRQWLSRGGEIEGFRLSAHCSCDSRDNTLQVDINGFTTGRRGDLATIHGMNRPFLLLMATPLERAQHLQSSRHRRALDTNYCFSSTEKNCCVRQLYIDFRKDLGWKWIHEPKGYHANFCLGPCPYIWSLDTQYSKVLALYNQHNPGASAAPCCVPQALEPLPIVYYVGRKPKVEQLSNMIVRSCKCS
Description: BLI; OctetRED96; biotinylated CT1-SLC on streptavidin biosensors, PF3 100-6.25 nM; 10 mM HEPES, 150 NaCl, pH 7.4, 0.005% Tween-20, 25 °C; 1:1 Langmuir fit. Conditions: both partners purified. On the technique in general: Biolayer interferometry detects binding as a change in optical thickness at a sensor tip.

B1: fibrillin-1 N-terminal region PF3 (domain or fragment)
chain: not shown
notes: fibrillin-1, N-terminal region called PF3; P35555-1 is printed for the AlphaFold input (115-287); PF1 and PF2 are two over-lapping constructs within this region; not verified; also called fibrillin1-PF3; fibrillin PF3 fragment
In the case of B1, the Kd is about 6 nM.
